Target: GST-fusion protein containing amino acids 327-517 of KIAA0175 (human) (UniProt Q14680)
Assay: cell-based or functional assay

Sequence of UniProt Q14680 (Q14680 327-517 S391Q): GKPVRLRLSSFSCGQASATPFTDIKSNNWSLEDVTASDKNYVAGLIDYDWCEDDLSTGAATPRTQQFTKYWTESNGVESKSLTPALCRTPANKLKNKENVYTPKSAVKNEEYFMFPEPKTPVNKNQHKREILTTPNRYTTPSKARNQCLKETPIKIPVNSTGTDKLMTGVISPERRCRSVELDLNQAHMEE

increase in phosphorylation by ATM immunoprecipitated from gamma-irradiated cells: 2 to 3 fold
Substance: Ataxia telangiectasia mutated (ATM), immunoprecipitated from cells (from UniProt Q13315 2-3056) (enzyme)

Source: patent EP1950297A2
